Among the data in patent publication US8357701B2, “Galactokinase inhibitors” (University of Miami, priority 2007, dated 2013) are Km values, retold here.

Series [1] deals with T1, O=C[C@H](O)[C@@H](O)[C@@H](O)[C@H](O)CO.
T1 construct: made in house; host or cells: Escherichia coli HMS174 (DE3), plasmid pET15b
The series is described as follows: standard pyruvate kinase/lactate dehydrogenase-coupled GALK assay. Conditions: other: substrates of purified human GALK. It counts as biochemical.
From the text: As the percentage of substrate conversion can have significant impact on the accuracy of IC50 determination, the preferred approach is to determine reaction rates at initial velocity (i.e., zero substrate conversion). […] In this assay, the amount of galactose present in the reaction is kept in excess, whereas ATP consumed by the galactokinase reaction is recycled by the pyruvate kinase reaction. As a result, the reaction rates calculated will be close to initial velocity.
As the percentage of substrate conversion can have significant impact on the accuracy of IC50 determination, the preferred approach is to determine reaction rates at initial velocity (i.e., zero substrate conversion). […] The dose response of the selected compounds was analyzed using the standard pyruvate kinase/lactate dehydrogenase-Coupled assay. In this assay, the amount of galactose present in the reaction was kept in excess, whereas ATP consumed by the galactokinase reaction was recycled by the pyruvate kinase reaction. As a result, the reaction rates calculated were close to initial velocity.

In series [2] the test system is Nc1ncnc2c1ncn2[C@@H]1O[C@H](COP(=O)(O)OP(=O)(O)OP(=O)(O)O)[C@@H](O)[C@H]1O. Description: purified protein, by the assay type. The note with it: other: substrates of purified human GALK.

In general, Km refers to the substrate concentration at which the rate is half of its maximum. In the case of human GALK (Homo sapiens), the figures for the Km in series [1] and in series [2] were 210 µM and 42 µM, respectively.
